Patent US20060257938A1, “Method of screening for drugs that block ligand binding to a lipid binding protein” (priority 2005, published 2006)
“And” between values parts separate entries of the source, which are not always exact repeats. Equal values may be shown once.

What was measured:
Type in all cases: binding
ADIFAB = biological target: T1, ADIFAB (Rattus norvegicus, UniProt P02693); assay: ADIFAB screening assay in 96-well plates (emission ratio 505/432)
T1 construct: purchased FFA Sciences LLC, San Diego, Calif
T1 sequence (P02693 2-132): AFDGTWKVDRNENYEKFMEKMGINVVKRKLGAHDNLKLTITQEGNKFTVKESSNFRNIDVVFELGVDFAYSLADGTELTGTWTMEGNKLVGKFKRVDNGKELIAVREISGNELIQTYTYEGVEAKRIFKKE
Source text: In a preferred embodiment, the probe is a fatty acid binding protein (FABP), more preferably a recombinant rat intestinal fatty acid binding protein (rI-FABP), which has been derivatized with acrylodan. DNA and protein sequences for Fatty Acid Binding Proteins (FABPs) are shown in the sequence listing. […] The rat fatty acid binding protein is post-translationally modified in the rat, with the modifications including the removal of the N-terminal methionine and the acetylation of the “new” N-terminal residue Ala. Protein sequences are numbered starting with the first residue of the mature protein. Thus, Ala is residue 1 in the corresponding protein shown as SEQ ID NO: 2. […]
Five identical 96-well plates were prepared with 0.5 μM ADIFAB and 1% dimethyl sulfoxide in 200 μL aqueous buffer (20 mM HEPES, 140 mM NaCl, 5 mM KCl, 1 mM Na2HPO4, pH 7.4) to test assay reproducibility, precision, and quality. Wells were excited at 386 nm and the emission detected at 432 and 505 nm with a fluorescence plate reader connected via fiber optic cables to a standard Spex spectrofluorometer. The emission ratio (505/432), which determines the amount of bound […], was calculated for each well. A positive control (4 μM sodium oleate (OA)) was added to each well and the ratio was measured again. […] The Z′-factor, as defined below, provides a quantitative assessment of the assay [Zhang, J., et al J. Biomol. […]

[1] = Probe fluorescence ratio response to linolenic acid relative to ADIFAB2; details: response relative to ADIFAB2
Method in brief: (§1)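 Fluorescently labeled rat intestinal FABP variants were read at two emission wavelengths, near the unbound maximum (about 420 to 480 nm) and the FFA-bound maximum (about 495 to 580 nm). R = Fλ1/Fλ2 after subtracting probe-free intensity; ΔR = R+agent − R0, normalized to ADIFAB2 (rI-FABP-L72A).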

[2] = Probe fluorescence ratio response to linoleic acid relative to ADIFAB2; details: response relative to ADIFAB2
Method in brief: as §1

[3] = Probe fluorescence ratio response to oleic acid relative to ADIFAB2; details: response relative to ADIFAB2
Method in brief: as §1

[4] = Probe fluorescence ratio response to palmitic acid relative to ADIFAB2; details: response relative to ADIFAB2
Method in brief: as §1

[5] = Probe fluorescence ratio response to arachidonic acid relative to ADIFAB2; details: response relative to ADIFAB2
Method in brief: as §1

[6] = Response profile of probe to fatty acids (Table 2)
[7] = Probe fluorescence ratio response to palmitoleic acid relative to ADIFAB2; details: response relative to ADIFAB2
Method in brief: as §1

[8] = Probe fluorescence ratio response to stearic acid relative to ADIFAB2; details: response relative to ADIFAB2
Method in brief: as §1

CCCCCCCC/C=C\CCCCCCCC(=O)[O-].[Na+] [OA, sodium oleate]
ρc+ average ratio (505/432), Positive Control (+OA) (ADIFAB; 4 μM OA, 0.5 μM ADIFAB, 1% dimethyl sulfoxide, one value per plate 1-5): 1.77 and 1.84 and 1.81 and 1.68 and 1.83
ΔR (ADIFAB; 4 μM oleate, positive control): 1.8

B1: 72F (protein, listed as Rattus norvegicus)
chain: AFDGTWKVDRNENYEKFMEKMGINVVKRKLGAHDNLKLTITQEGNKFTVKESSNFRNIDVVFELGVDFAYSFADGTELTGTWTMEGNKLVGKFKRVDNGKELIAVREISGNELIQTYTYEGVEAKRIFKKE
modifications: PEPTIDE (1)...(131) wild-type rat intestinal fatty acid binding protein
DR/DR LNA [1]: 0.59 and 0.592
DR/DR LA [2]: 0.61 and 0.612
DR/DR OA [3]: 0.57 and 0.571
DR/DR PA [4]: 0.46 and 0.456
DR/DR AA ([5]; Arachidonic acid): 0.40
DR/DR AA ([5]; arachidonic acid): 0.401
response profile [6]: AA lowest

B2: 119M, 72A (protein, listed as Rattus norvegicus)
chain: AFDGTWKVDRNENYEKFMEKMGINVVKRKLGAHDNLKLTITQEGNKFTVKESSNFRNIDVVFELGVDFAYSAADGTELTGTWTMEGNKLVGKFKRVDNGKELIAVREISGNELIQTYTMEGVEAKRIFKKE
modifications: PEPTIDE (1)...(131) wild-type rat intestinal fatty acid binding protein
DR/DR LNA [1]: 2.280
DR/DR LA [2]: 1.184
DR/DR OA [3]: 1.191
DR/DR PA [4]: 0.722
DR/DR AA ([5]; arachidonic acid): 1.087
response profile [6]: Favors LNA

B3: 38Y 62W 117A 72A (protein, listed as Rattus norvegicus)
chain: AFDGTWKVDRNENYEKFMEKMGINVVKRKLGAHDNLKYTITQEGNKFTVKESSNFRNIDVVWELGVDFAYSAADGTELTGTWTMEGNKLVGKFKRVDNGKELIAVREISGNELIQTATYEGVEAKRIFKKE
modifications: PEPTIDE (1)...(131) wild-type rat intestinal fatty acid binding protein
DR/DR POA [7]: 0.272
DR/DR SA [8]: 0.854
DR/DR LNA [1]: 1.237
DR/DR LA [2]: 1.848
DR/DR OA [3]: 1.896
DR/DR PA [4]: 0.316
DR/DR AA ([5]; arachidonic acid): 2.353
response profile [6]: Favors AA

B4: 38Y 18L 73V 72A (protein, listed as Rattus norvegicus)
chain: AFDGTWKVDRNENYEKFLEKMGINVVKRKLGAHDNLKYTITQEGNKFTVKESSNFRNIDVVFELGVDFAYSAVDGTELTGTWTMEGNKLVGKFKRVDNGKELIAVREISGNELIQTYTYEGVEAKRIFKKE
modifications: PEPTIDE (1)...(131) wild-type rat intestinal fatty acid binding protein
DR/DR POA [7]: 0.023
DR/DR SA [8]: 0.824
DR/DR LNA [1]: 0.133
DR/DR LA [2]: 0.034
DR/DR OA [3]: 0.235
DR/DR PA [4]: 0.067
DR/DR AA ([5]; arachidonic acid): 1.172
response profile [6]: AA and SA

B5: 21W 72A (protein, listed as Rattus norvegicus)
chain: AFDGTWKVDRNENYEKFMEKWGINVVKRKLGAHDNLKLTITQEGNKFTVKESSNFRNIDVVFELGVDFAYSAADGTELTGTWTMEGNKLVGKFKRVDNGKELIAVREISGNELIQTYTYEGVEAKRIFKKE
modifications: PEPTIDE (1)...(131) wild-type rat intestinal fatty acid binding protein
DR/DR POA [7]: 2.120
DR/DR SA [8]: 1.946
DR/DR LNA [1]: 2.550
DR/DR LA [2]: 2.551
DR/DR OA [3]: 2.808
DR/DR PA [4]: 1.637
DR/DR AA ([5]; arachidonic acid): 3.829
response profile [6]: Large Response, Favors AA

B6: 72S 73P 74I (protein, listed as Rattus norvegicus)
chain: AFDGTWKVDRNENYEKFMEKMGINVVKRKLGAHDNLKLTITQEGNKFTVKESSNFRNIDVVFELGVDFAYSSPIGTELTGTWTMEGNKLVGKFKRVDNGKELIAVREISGNELIQTYTYEGVEAKRIFKKE
modifications: PEPTIDE (1)...(131) wild-type rat intestinal fatty acid binding protein
DR/DR POA [7]: 3.155
DR/DR SA [8]: 1.337
DR/DR LNA [1]: 3.091
DR/DR LA [2]: 2.792
DR/DR OA [3]: 2.162
DR/DR PA [4]: 2.210
DR/DR AA ([5]; arachidonic acid): 2.154
response profile [6]: Favors POA and LNA

B7: 72T 73W 74G (protein, listed as Rattus norvegicus)
chain: AFDGTWKVDRNENYEKFMEKMGINVVKRKLGAHDNLKLTITQEGNKFTVKESSNFRNIDVVFELGVDFAYSTWGGTELTGTWTMEGNKLVGKFKRVDNGKELIAVREISGNELIQTYTYEGVEAKRIFKKE
modifications: PEPTIDE (1)...(131) wild-type rat intestinal fatty acid binding protein
DR/DR POA [7]: 2.770
DR/DR SA [8]: 0.305
DR/DR LNA [1]: 1.702
DR/DR LA [2]: 1.348
DR/DR OA [3]: 0.822
DR/DR PA [4]: 1.817
DR/DR AA ([5]; arachidonic acid): 0.687
response profile [6]: SA and AA lowest

B8: 18I 31F 72A (protein, listed as Rattus norvegicus)
chain: AFDGTWKVDRNENYEKFIEKMGINVVKRKLFAHDNLKLTITQEGNKFTVKESSNFRNIDVVFELGVDFAYSAADGTELTGTWTMEGNKLVGKFKRVDNGKELIAVREISGNELIQTYTYEGVEAKRIFKKE
modifications: PEPTIDE (1)...(131) wild-type rat intestinal fatty acid binding protein
DR/DR POA [7]: 2.659
DR/DR SA [8]: 0.950
DR/DR LNA [1]: 3.027
DR/DR LA [2]: 2.707
DR/DR OA [3]: 1.761
DR/DR PA [4]: 2.037
DR/DR AA ([5]; arachidonic acid): 2.043
response profile [6]: Favors LNA

B9: 72H 73P 74L (protein, listed as Rattus norvegicus)
chain: AFDGTWKVDRNENYEKFMEKMGINVVKRKLGAHDNLKLTITQEGNKFTVKESSNFRNIDVVFELGVDFAYSHPLGTELTGTWTMEGNKLVGKFKRVDNGKELIAVREISGNELIQTYTYEGVEAKRIFKKE
modifications: PEPTIDE (1)...(131) wild-type rat intestinal fatty acid binding protein
DR/DR POA [7]: 7.165
DR/DR SA [8]: 1.474
DR/DR LNA [1]: 6.352
DR/DR LA [2]: 5.429
DR/DR OA [3]: 3.919
DR/DR PA [4]: 5.260
DR/DR AA ([5]; arachidonic acid): 4.597
response profile [6]: Large Response, Favors
